# Results reported in publication PMC4881018, “Sec15 links bud site selection to polarised cell growth and exocytosis in Candida albicans” (Scientific Reports, 2016).
# T1: His-Sec15^1–549 (C. albicans, UniProt A0A1D8PM29 1-549)
# T1 construct: Sec15, exocyst component of Candida albicans, amino acids 1 to 549; Subcloned into pET21-a (Novagen); also called His6-Sec15^1–549; source: E. coli, purified
# T1 sequence (looked up): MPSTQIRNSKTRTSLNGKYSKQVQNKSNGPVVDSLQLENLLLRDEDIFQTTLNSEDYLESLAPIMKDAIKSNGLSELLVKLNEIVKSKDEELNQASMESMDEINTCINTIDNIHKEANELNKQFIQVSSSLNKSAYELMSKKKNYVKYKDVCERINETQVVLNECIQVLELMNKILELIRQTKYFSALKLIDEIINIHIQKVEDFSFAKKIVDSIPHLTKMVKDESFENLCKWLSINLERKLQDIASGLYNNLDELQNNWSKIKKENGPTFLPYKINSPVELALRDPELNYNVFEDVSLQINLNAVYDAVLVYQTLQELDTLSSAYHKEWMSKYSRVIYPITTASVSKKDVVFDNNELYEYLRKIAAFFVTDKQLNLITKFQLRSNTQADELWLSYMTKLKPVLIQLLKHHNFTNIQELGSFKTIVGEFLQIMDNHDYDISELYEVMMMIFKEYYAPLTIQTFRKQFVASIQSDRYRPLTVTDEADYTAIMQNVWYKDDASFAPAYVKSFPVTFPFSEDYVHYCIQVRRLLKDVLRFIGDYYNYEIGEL
# T2: His-Sec15^1–300 (C. albicans, UniProt A0A1D8PM29 1-300)
# T2 construct: Sec15, exocyst component of Candida albicans, amino acids 1 to 300; Subcloned into pET21-a (Novagen); also called His6-Sec15^1–300; source: E. coli, purified
# T2 sequence (looked up): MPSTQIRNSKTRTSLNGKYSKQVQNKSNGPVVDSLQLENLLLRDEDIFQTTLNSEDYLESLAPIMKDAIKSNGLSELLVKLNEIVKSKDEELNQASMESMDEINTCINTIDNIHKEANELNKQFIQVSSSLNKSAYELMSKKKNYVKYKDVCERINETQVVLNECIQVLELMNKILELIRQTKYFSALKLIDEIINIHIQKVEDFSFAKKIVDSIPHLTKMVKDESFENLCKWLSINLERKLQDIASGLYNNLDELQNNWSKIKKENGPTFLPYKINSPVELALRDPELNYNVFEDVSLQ
# T3: GST-Sec15^550–892 (C. albicans, UniProt A0A1D8PM29 550-892)
# T3 construct: The methods say only that similar strategies as for Sec15 and Rsr1 were used; source: E. coli, purified
# T3 sequence (looked up): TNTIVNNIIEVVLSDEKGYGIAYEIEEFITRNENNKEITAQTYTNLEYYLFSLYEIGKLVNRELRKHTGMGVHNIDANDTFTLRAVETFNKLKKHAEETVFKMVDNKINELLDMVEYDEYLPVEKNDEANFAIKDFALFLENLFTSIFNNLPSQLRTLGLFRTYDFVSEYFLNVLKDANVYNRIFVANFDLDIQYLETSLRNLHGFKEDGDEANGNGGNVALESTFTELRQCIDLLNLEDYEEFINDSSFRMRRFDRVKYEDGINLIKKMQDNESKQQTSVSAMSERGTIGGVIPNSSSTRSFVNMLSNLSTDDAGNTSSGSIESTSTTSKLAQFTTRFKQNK
# B1: GST-Rsr1^K16N (GDP-locked form of Rsr1) (natural protein)
# chain: MRDYKVVVLGAGGVGNSSITVQFVQGVYVESYDPTIEDSYRKQIEVDGRACDLEILDTAGVAQFTAMRELYIKSGKGFLLVYSVTDENSLKELLALREQVLRIKDSDNVPMVLVGNKCDLEDDRVLSIEDGVKVSQDWGLVPFYETSAMYKTNVDEAFIDVVRQIMRKEAAISAEKKQQKELQKQQQQQQQEQDAEGQQQQQKSGKSKSSATQKDATADGQTDVNARLKQSINDHPKSSSGSKFCTII
# notes: Rsr1, Ras-family GTPase of Candida albicans; GDP-locked mutant K16N; Made with the pGEX vector system (Amersham Biosciences), which normally places GST at the N-terminus; also called Rsr1-GDP; recombinant Rsr1^K16N
# B2: His-Bem1^1–300 (domain or fragment, C. albicans, UniProt A0A1D8PLB6 1-300, looked up)
# chain: MIKTFRKSKRSSSNSSSPKKTISRVSSTSSNQTSHDGILQSPKKVIRALYDYEPQGPGELKFFKGDFFHVLDDVDDELHKEAEANGWIEATNPMTQLKGMVPISYFEIFDRSRPTVTASSNSFTNSIDIQHQHQHQQGIHNGTGNRNLNQTLYAVTLYEFKAERDDELDIMPNENLIICAHHDYEWFIAKPINRLGGPGLVPVSYVKIIDLLNPNSHYTSIDTSRRSQVIQVINGFNIPTVEQWKNQTAKYQASTIPLGSISGSGTPPTSANSQYFDNHTMTSNRSSSGSSISIVEASVD
# notes: Bem1, polarity determinant of Candida albicans, N-terminal 300 amino acids; also called His6-Bem1^1–300; N-terminal 300 amino acids of Bem1; source: similar strategies as for the E. coli proteins
# How the values were obtained:
# Assay in all cases: pull-down; GST fusion protein immobilised on glutathione-Sepharose beads (20 μl), incubated with 20 μg of purified His-tagged protein in 200 μl binding buffer (1× PBS, 1 mg/ml ovalbumin, 10 mM β-mercaptoethanol, 0.1% IGPAL-30), 1 hour at room temperature; four washes; anti-His blot
# Settings in all cases: both partners purified
# His-Sec15^1–549 = target: T1, His-Sec15^1–549
# His-Sec15^1–300 = target: T2, His-Sec15^1–300
# GST-Sec15^550–892 = target: T3, GST-Sec15^550–892
Binder,binding result (His-Sec15^1–549),binding result (His-Sec15^1–300),binding result (GST-Sec15^550–892)
B1,binds,binds,–
B2,–,–,binds
